{"source": "paper PMC3220887", "about": "(Structure (London, England : 1993), 2011)", "proteins": {"B1": {"name": "D48V-GLTP (human glycolipid transfer protein, D48V mutant) (natural protein, UniProt Q9NZD2 1-209, looked up)", "chain": "MALLAEHLLKPLPADKQIETGPFLEAVSHLPPFFDCLGSPVFTPIKAVISGNITKIKAVYDTNPAKFRTLQNILEVEKEMYGAEWPKVGATLALMWLKRGLRFIQVFLQSICDGERDENHPNLIRVNATKAYEMALKKYHGWIVQKIFQAALYAAPYKSDFLKALSKGQNVTEEECLEKIRLFLVNYTATIDVIYEMYTQMNAELNYKV"}}, "target": "the molecule itself", "experiment": "dynamic light scattering", "data": [{"protein": "B1", "values": [{"measurement": "stoichiometry N", "result": 2}]}]}
